Measured values published in patent US7988958B2, “Enterococcus and Streptococcus strains and bacteriocins” (The United States of America as represented by the …, priority 2005, dated 2011).
Where “and” joins values, the source holds several entries; their conditions need not be identical. Equal values may be shown once. Read-outs that look alike come from different tables or passages of the source.

Assays:
[1] = test system: Staphylococcus aureus; experiment: MIC by spot test; format: cell-based
[2] = test system: Citrobacter freundi; experiment: MIC by spot test; format: cell-based
[3] = test system: S. gallinarum pullorum; experiment: MIC by spot test; format: cell-based
[4] = test system: C. jejuni NCTC 11168; experiment: SDS-PAGE gel overlaid with test strain; format: cell-based, Campylobacter jejuni; details: for Inhibiting Activity measured by SDS-PAGE: CAP, active band, C. jejuni NCTC 11168; for Inhibiting Activity SDS-PAGE: purified bacteriocin, C. jejuni
Method: (§1) CAPs and bacteriocins were electrophoresed in about 15% […] gel weight, about 1% SDS (9×12 cm) in Tri-glycine buffer. After electrophoresis at about 100 mA for approximately 4 hours, gels were fixed with a solution containing approximately 15% ethanol and approximately 1% acetic acid. The gels were then washed with distilled water for approximately 4 hours. To determine molecular weights of protein fractions, the gel was stained with a solution containing approximately 0.21% Coomassi Blue G-250, about 40% ethanol, and about 7% acetic acid. Washed gels were tested against three target bacteria, C. jejuni NCTC 11168, E. coli 0157:H7 904, and S. enteritidis 204 by the method of Bhunia et al. (Journal of Industrial Microbiology, Volume 2, 319-322, 1987; herein incorporated by reference). The gels were placed in Petri dishes, covered with 5% blood-semi-solid Campylobacter agar (about 0.75%) or semi-solid MPA, and seeded with cells of the test strains. Plates containing C. jejuni were incubated at about 42° C. for approximately 48 hours under microaerobic conditions, E. coli 0157:H7 and S. enteriditidis at about 37° C. for approximately 24 hours. Assessment was based on visualization of zones of the inhibited growth of the test strains in the presence of bacteriocins.

[5] = test system: C. jejuni; experiment: Activity of bacteriocin preparations from culture with and without inducer strain (arbitrary units); format: cell-based, Campylobacter jejuni
[6] = test system: S. choleraesuis 370; experiment: MIC by spot test; format: cell-based
[7] = test system: C. jejuni NCTC 11168; experiment: Influence of enzymes on bacteriocin activity (spot test); format: physicochemical, Campylobacter jejuni
[8] = test system: E. coli HB101; experiment: MIC by spot test; format: cell-based
[9] = test system: Morganella morganii; experiment: MIC by spot test; format: cell-based
[10] = test system: E. coli O157:H7 OD-3; experiment: MIC by spot test; format: cell-based
[11] = test system: S. enteritidis 204; experiment: Spot test; format: cell-based; details: for Inhibiting activity in Spot Test: crude antimicrobial preparation (CAP); for Inhibiting Activity, Spot Test: purified bacteriocin
[12] = test system: S. enteritidis 204; experiment: MIC by spot test; format: cell-based
[13] = test system: Campylobacter spp. P-28; experiment: MIC by agar diffusion; format: cell-based; details: Campylobacter spp. strain P-28
Method: (§2) The susceptibility of Campylobacter spp. to purified preparations of bacteriocins 760 and E50-52 was determined using strains isolated from broiler chicks as described above in Example 1. Antagonistic activity of the bacteriocins was assessed on the basis of minimum inhibitory concentrations (MICs) which were determined by agar diffusion. […] All the tested bacteriocins are highly antagonistic to the Campylobacter spp. strains.

[14] = test system: Campylobacter spp. Cez-4; experiment: MIC by agar diffusion; format: cell-based; details: Campylobacter spp. strain Cez-4
Method: as §2

[15] = test system: Campylobacter spp. P-24; experiment: MIC by agar diffusion; format: cell-based; details: Campylobacter spp. strain P-24
Method: as §2

[16] = test system: Campylobacter spp. P-32; experiment: MIC by agar diffusion; format: cell-based; details: Campylobacter spp. strain P-32
Method: as §2

[17] = test system: Campylobacter spp. Ind18/2; experiment: MIC by agar diffusion; format: cell-based; details: Campylobacter spp. strain Ind18/2
Method: as §2

[18] = test system: Campylobacter spp. P-21; experiment: MIC by agar diffusion; format: cell-based; details: Campylobacter spp. strain P-21
Method: as §2

[19] = test system: Campylobacter spp. F-1; experiment: MIC by agar diffusion; format: cell-based; details: Campylobacter spp. strain F-1
Method: as §2

[20] = test system: Y. enterocolitica 03; experiment: MIC by spot test; format: cell-based
[21] = test system: E. coli O157:H7 Y-63; experiment: MIC by spot test; format: cell-based
[22] = test system: S. enteritidis 4; experiment: MIC by spot test; format: cell-based
[23] = test system: S. typhimurium 320; experiment: MIC by spot test; format: cell-based
[24] = test system: E. coli O157:H7 904; experiment: Spot test; format: cell-based; details: for Inhibiting activity in Spot Test: crude antimicrobial preparation (CAP), E. coli O157:H7 904; for Inhibiting Activity, Spot Test: purified bacteriocin, E. coli O157:H7
[25] = test system: Staphylococcus aureus; experiment: MIC of purified bacteriocins and antibiotic by Spot Test; format: cell-based; details: S. aureus; 24 hours at 37° C., aerobic
Method: (§3) The minimal inhibiting concentrations (MICs) of bacteriocins 760 and 50-52 and Methicillin were determined by Spot Test. Various concentrations of purified bacteriocins (μg/ml) in a volume of 10 μl was added to cultures of Staphylococcus aureus, Staphylococcus epidermidis, Pseudomonas aeruginosa, and Helicobacter pylori. The cultures were incubated for about 24 hours at about 37° C. under aerobic conditions for all but Helicobacter pylori which was incubated under microaerobic conditions.

[26] = test system: Helicobacter pylori; experiment: as above; format: cell-based; details: H. pylori; 24 hours at 37° C., microaerobic
Method: as §3

[27] = test system: Pseudomonas aeruginosa; experiment: as above; format: cell-based; details: P. aeruginosa; 24 hours at 37° C., aerobic
Method: as §3

[28] = test system: Staphylococcus epidermidis; experiment: as above; format: cell-based; details: S. epidermidis; 24 hours at 37° C., aerobic
Method: as §3

[29] = test system: Klebsiella pneumoniae; experiment: MIC by spot test; format: cell-based
[30] = test system: S. enteritidis 204; experiment: SDS-PAGE gel overlaid with test strain; format: cell-based; details: for Inhibiting Activity measured by SDS-PAGE: CAP, active band; for Inhibiting Activity SDS-PAGE: purified bacteriocin
Method: as §1

[31] = test system: E. coli O157:H7 904; experiment: SDS-PAGE gel overlaid with test strain; format: cell-based; details: for Inhibiting Activity measured by SDS-PAGE: CAP, active band, E. coli O157:H7 904; for Inhibiting Activity SDS-PAGE: purified bacteriocin, E. coli O157:H7
Method: as §1

[32] = test system: S. enteritidis 1; experiment: MIC by spot test; format: cell-based
[33] = cultivation with inducer strain
[34] = cultivation without inducer strain

## Bacteriocin 50-52: bacteriocin produced by Enterococcus durans/faecium/hirae NRRL B-30746 (strain 50-52); amino acid sequence SEQ ID NO 1 (TTKNYGNGVCNSVNWCQCGNVWASCNLATGCAAWLCKLA; listed as Enterococcus faecium)
[1]
  MICs: 0.4 µg/mL
[2]
  MICs: 0.1 µg/mL
[3]
  MICs: 0.1 µg/mL
[4]
  Inhibiting Activity measured by SDS-PAGE: M.W. 3.9 kDa
  Inhibiting Activity SDS-PAGE: +Band 1
[5]; [33]
  Activity AU/ml: 12,800 AU/ml
  Specific Activity AU/mg: 320,000 AU/mg
[5]; [34]
  Activity AU/ml: 3,200 AU/ml
  Specific Activity AU/mg: 213,333 AU/mg
[6]
  MICs: 0.1 µg/mL
[7]; treated with beta-chymotrypsin
  Antimicrobial activity after treatment: lost their antimicrobial activity
[7]; treated with lipase
  Antimicrobial activity after treatment: retained it
[7]; treated with lysozyme
  Antimicrobial activity after treatment: retained it
[7]; treated with papain
  Antimicrobial activity after treatment: lost their antimicrobial activity
[7]; treated with proteinase K
  Antimicrobial activity after treatment: lost their antimicrobial activity
[8]
  MICs: 0.1 µg/mL
[9]
  MICs: 3.2 µg/mL
[10]
  MICs: 0.1 µg/mL
[11]
  Inhibiting activity in Spot Test: 12,800 AU/ml
  Inhibiting Activity, Spot Test: 12,800 AU/ml
[12]
  MICs: 0.2 µg/mL
[13]
  MICs: 0.1 µg/mL
[14]
  MICs: 0.1 µg/mL
[15]
  MICs: 0.05 µg/mL
[16]
  MICs: 0.1 µg/mL
[17]
  MICs: 0.05 µg/mL
[18]
  MICs: 0.05 µg/mL
[19]
  MICs: 0.1 µg/mL
[20]; Y. enterolitica 03
  MICs: 0.1 µg/mL
[21]
  MICs: 0.1 µg/mL
[22]
  MICs: 0.1 µg/mL
[23]
  MICs: 0.1 µg/mL
[24]
  Inhibiting activity in Spot Test: 3,200 AU/ml
  Inhibiting Activity, Spot Test: 6,400 AU/ml
[25]
  MIC of purified Bacteriocins and Antibiotic: 0.1 µg/mL
[26]
  MIC of purified Bacteriocins and Antibiotic: 0.8 µg/mL
[27]
  MIC of purified Bacteriocins and Antibiotic: 0.8 µg/mL
[28]
  MIC of purified Bacteriocins and Antibiotic: 0.4 µg/mL
[29]
  MICs: 0.2 µg/mL
[30]
  Inhibiting Activity measured by SDS-PAGE: M.W. 3.9 kDa
  Inhibiting Activity SDS-PAGE: +Band 1
[31]
  Inhibiting Activity measured by SDS-PAGE: M.W. 3.9 kDa
  Inhibiting Activity SDS-PAGE: +Band 1
[32]
  MICs: 0.1 µg/mL

B1: Bacteriocin 760: bacteriocin produced by Enterococcus durans/faecium/hirae NRRL B-30745 (strain 760); amino acid sequence SEQ ID NO 2 (protein, listed as Streptococcus cricetus)
chain: NRWYCNSAAGGVGGAAVCGLAGYVGEAKENIAGEVRKGWGMAGGFTHNKACKSFPGSGWASG
[1]
  MIC: 1.6 mg/mL
[2]
  MIC: 1.6 mg/mL
[3]
  MIC: 0.4 mg/mL
[4]
  Inhibiting Activity measured by SDS-PAGE: M.W. 5.5 kDa
  Inhibiting Activity SDS-PAGE: +Band 1
[5]
  Specific Activity AU/mg: 160,000 AU/mg and 284,444 AU/mg
[6]
  MIC: 0.4 mg/mL
[7]; treated with beta-chymotrypsin
  Antimicrobial activity after treatment: lost their antimicrobial activity
[7]; treated with lipase
  Antimicrobial activity after treatment: retained it
[7]; treated with lysozyme
  Antimicrobial activity after treatment: retained it
[7]; treated with papain
  Antimicrobial activity after treatment: lost their antimicrobial activity
[7]; treated with proteinase K
  Antimicrobial activity after treatment: lost their antimicrobial activity
[8]
  MIC: 0.1 mg/mL
[9]
  MIC: 3.2 mg/mL
[10]
  MIC: 1.6 mg/mL
[11]
  Inhibiting activity in Spot Test: 12,800 AU/ml
  Inhibiting Activity, Spot Test: 12,800 AU/ml
[12]
  MIC: 0.2 mg/mL
[13]
  MICs: 0.05 µg/mL
[14]
  MICs: 0.1 µg/mL
[15]
  MICs: 0.05 µg/mL
[16]
  MICs: 0.05 µg/mL
[17]
  MICs: 0.05 µg/mL
[18]
  MICs: 0.1 µg/mL
[19]
  MICs: 0.05 µg/mL
[20]; Y. enterocolitica 03
  MIC: 0.1 mg/mL
[21]
  MIC: 1.6 mg/mL
[22]
  MIC: 0.4 mg/mL
[23]
  MIC: 0.2 mg/mL
[24]
  Inhibiting activity in Spot Test: 12,800 AU/ml
  Inhibiting Activity, Spot Test: 12,800 AU/ml
[25]
  MIC of purified Bacteriocins and Antibiotic: 1.6 µg/mL
[26]
  MIC of purified Bacteriocins and Antibiotic: 0.2 µg/mL
[27]
  MIC of purified Bacteriocins and Antibiotic: 0.4 µg/mL
[28]
  MIC of purified Bacteriocins and Antibiotic: 1.6 µg/mL
[29]
  MIC: 3.2 mg/mL
[30]
  Inhibiting Activity measured by SDS-PAGE: M.W. 5.5 kDa
  Inhibiting Activity SDS-PAGE: +Band 1
[31]
  Inhibiting Activity measured by SDS-PAGE: M.W. 5.5 kDa
  Inhibiting Activity SDS-PAGE: +Band 1
[32]
  MIC: 0.2 mg/mL
